From the domain aggregation screens of Martell et al. (2025)

Test: soluble fraction after stress (log2 fold change); higher = more stays soluble; pooled small domains, quantitative proteomics
Details: stress: 50 degC
Procedure, shortened: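 The stress applied to every library was 50°C. These custom libraries of small protein domains were pooled and measured at high throughput with quantitative proteomics as the read-out. Aggregation propensity is expressed as the base-two logarithm of the fold change in how much of each protein remains soluble. The higher the value, the more of that protein stays in solution.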

Sequence | soluble fraction (log2)
HMLTEEVEISLMDMTKPTQPATIKTTATIQKGATTVMPKQIKMPEGYEFYGNYKMDQPFELTMTFVVKKI | 0.115
HMKSLVDLEISIVKKDMNYFVLPKINGEPLLMERISASEYKDFQLGKLSKEDIFQKHYPDYSEENIKNGRG | 0.145
HMEQYYVFFAGGMTIGTKEWYESILPENIATSYDDILEGKMMPASLEQIEFYNSHKDYDLYHLFYML | -4.11
HMVMTTVPEVLGMDISKAASLLTGKNLDYDYDLVESDKPKDQVIEQDVVKGTEVPEGTVIHLKVSKGPA | 0.228
HMEAYLPVTVVSDGKILTGNLEKAGKNEKWLENVLSELKTDVKNTLLLTVDPKDGLIFYPKG | 0.0932
HMLKKGDQVYIISGKDKGKLGVVSQIVSEERILVDGINLAKKHVKPNPNKNETGGVVEKEMPIHASNVMI | -0.0911
HMVMAELRISVDRLQIGNYIKLPLSWRDHPFLLSSFMIKKEEQIQLIRQLRLKHVFIIPEKSDAPPKPA | -4.15
HMGYGEQEQEAQKYLALHALMSQDPTLAKMYQAPNQYKLMSHVMEQNGIKNVNDYLTDPQQLP | -0.00068
HMADASVTAYFKIAEDRLQGRLPDTFSEASLKARYQLTPAQLTAVLTRIAQEGWAERKPGYGWAFSSML | -1.4
HMVSATKAFVNGGNIVVSSPKATRVAVYNVAGQKVAEQAFAGKATIKASDFAKGIYVLKFNDNTVLKLT | -0.518
HMKTKTFSPGEIVKIQTRDKSWQGTILESHDPEIILLKLTTGYNIGIRENEIINAKVIEKSKKDVKDAE | 0.183
HMTGIRVYPNPTSSELRFSVATDAALYDATGARLRVVRGSDMMDIRDLASGTYYVRFADGSTQSVVVT | -0.198
HMAIPTTDSDKATDAQIKQIKLLGDIHPNLKLDAWLERNHVTWETLTREQAGNMMKAIKNKYGD | -0.00881
HMIDKIRYPELIMKLAHQQGGTIKRRDVEQLLHLQTKQAYRELSKLVDAGELVSVGRGPGAHYEVS | 0.042
HMNVDALIGTKGIVVQPIRPFAVGQVKVNGQVWSAVGKTPETDIEQGREVKVHAIEGVKLVVTPT | 0.251
HMPGKVSDAGATAKDNRLFLEAVFWRVRTGSPWRDLPPAFGHWNSQFRRFRRWAKAGVFESLFNA | 0.0893
HMSNGFFELKTSQQDELIDLIDSHTNFVRTKIEGELITAFLKLPMDAEEFNKLLFTNGIILSHLVKRK | -0.461
HMVIDETVLIDLFERLAEDDRPQRVAFRYILALVLLRKRTLQLIGREDEDDGEIWLLRFKGTDGEPIRV | -0.297
HMGHEISLNNSRFLKLLNKTKISISNDDTRHYLNGIFLHLTEAHGRQFLTGVATDSHRLSSSSLEID | -0.0045
HMATAPQIRAIYALGSKLGINQNSREDNLHQLVYSITGKESIKGLTNYEAARVQSELANMERK | 0.22
HMNQTTYTVLYSGMDPADTGKVLTALNEMGVDARTQGEDTVLVPADRADEIRLELAAQGYPTS | 0.0864
HMLERPLKLKSHYVSAINEKVAVQFQAGEERKSIMGTLTEVNQDTIVIDDRGSVTEIPFKSIIRAKTVF | 0.258
HMLSPAQSLLLRTAARRPDGRVIPPDTLRGGARVKVLTSLLQRGWIEPVDGGHVLTDAGYAAIG | -0.353
HMKLARGEFEIMAKFIKEISGISLEQNKTYLIESRLSDLAESEGVKTFSDFFFKAKFNKILKEKIIDAI | -0.946
HMKGVTVDGDNITVDGEKQTLISVNKNLDGDVVSYTYRTADGKLRTSRNVEVAQEINKQQLLKSIDAQ | 0.0821
HMKTRTVVLKSAGGNKIAVIKIIKEITGLGLVEAKAVADNGGNIKENIPAEEAEAIKTQLTEAGAEVEL | -0.192
HMTYNIPEHYQTIDVKEYVRKLVSDGDSDQIGRVEMELTEFETRNLFPVLKVLIYIIDTMRK | -2.45
HMEHTPHGVALLRTLMDQYGLKAADLANELGSKSNVSNILNGRRALTVSHIKMLAERFNLPADAFI | -0.914

Sequence | soluble fraction (log2)
HMAIEMSTITKRVTSTGEIRYRALLQIRREDVNYTESRTFSKKSLAEAWLKKREVELEANPELLHQ | -1.32
HMEIGNVIAKLRVSNGLNQREFAKKLEVSNGAVAMWETNKRQPDLEMIKKISNLFDVPTDYILGAGTFQ | -0.458
HMDVIDDAQAMEIALEDAGLSMDDLDRYELELHTKRSELVYSIELKSGTEEYEYDLRAADGTILKRDTDF | -0.168
HMDMQNIQKGLSAIEPGRTFSREEYYAAIQNGSEMLLKEDALAYSLRKSLSDGDIVRVSWNQYAIP | -0.116
HMSVDDYLKFSGSGTYWNTQDRGKTYLVNGQQRPLRDKEYLPDVMHRHVIDFITKHRDRPFYIYYSM | 0.0643
HMKIVQDIAFSDFLNEVEKDNVLDVNIKGDLINGNLADGRKFKTYTPYDPNLIEKLSNKNVTINVEPYN | 0.198
HMQISDESSIAKIADEVISEFPSQVSEFRSGKEKVLQFLIGQVMKKTKGKANPQITAKILREKLS | 0.119
HMTLVSALDQKTKDSAYYRGTYLAGKISAGKMTKQEAVADIMKNYDGNTAAMKVAAEKAGVSDLLSQTVL | 0.234
HMDDGALQIRLGPQALQQRLDKLGYSLNKEDLDLVYQYFLHSADSKGAVYDQELRELMGEAGVE | -0.0408
HMLDIPEVGQAVQVRGRLGTVFSVAPYDGREGRLHLVTVDYLDDARPPENDEILWEIESGARILG | -0.523
HMNLPTSGVDALTPAERRVARMAGDGQSNREIAQTLFVTRKTVEIHLTSVYRKLGIASRAELSARL | -2.6
HMVTKQKKLVLTIIERSHGHLSAEEIFFRAREEMPNIALGTVYRNLNSLTEEGIVRRITLPGTSDRFDT | -2.79
HMSGEPKNERQIEVPDVTKKSIREANNILTSEGLRLRIEGTGLAVSQKPAAGTMVEPDTIITVTFQAP | 0.35
HMGEQVFSRKDLAINGNDLKAVFGWPPGPKYREALDQLFHWVLEDPARNRRETLLAYLHSLYD | -0.0199
HMSNSGFVKNNGKTEFYDASGRQAKSSWINISGKWYYFDLNGTMVTGWQRISNKWYYFLEDGSK | 0.0383
HMRNSFTVENTGERLDVFLTGQMPEFSRSHIQKLIASGQAWVNGVNRKGNFKLKPHDVVELEVPEPE | 0.53
HMGVGVTAPLAGNIFKIVKQPGDVVASGDVVLILEAMKMETEIRAAAGGTVKQVLVREGDAVDAGHTLMTL | -0.309
HMSIGKEATPDDIVPNIRVYHATFGYGNVIKTDGVSHDKKAVVNFDSVGEKTLLLKFAKLILPY | 0.138
HMAIKNKNEQLEAIIKFADLRGEFKTADIEELLSIKSSRARLLISELVKIGKLESIGSNRNRRYHIK | -0.52
HMHIMINPDQLSPEQIQSIRTWAEEGLDLNAIQKRLHEDLNIKLTFMDTRFLLQDLDIRIRQPEPEPEAEQ | -0.00841
HMAAINTYQVRKIYAIAGALGMKSRDGDDALHDLVFGMTGKQHISGLTSAEAYDVIAELEKKQ | -1.66
HMQELVPGKVFEGTVTEMKNGQVTLGLSDGKTISARMEQGVSLAKGQPMLFEVKSNTGEQIAIRPVVL | 0.169
HMALLSNTVDELHAGMRLDSYLFESGLYPSRSFAVKQIEAGKVFLNGDAVTKKTLVSNGDFIVYELEE | -0.778
HMVVANTAIKSELQNIVANENKQAPLSDQKIVDQLKQAGFDISRRTVVKYRDALGIPTSRNRKR | -0.131
HMSVLQGLIESFKAGDRNLYEVAERLNVTEPFLAEALKDYRARFPKGVQVDNFWISFRPYLTIAEV | -1.41
HMGVREIIVQFLEQFDKPKSVQEIVEYVLRYRNTTENSIRSTMYSGSQFRQFDNGYFGLSDKSYPNEYIYA | -0.603
HMLAQVSDEGPIRAMVEAVMARSTQQLEDYKNGKVKLRQYFFGEVMKAAKGKANPTVINKLLDEMLPETL | 0.255
